pEC50, pIC50: −log10 of the molar value.
What was measured:
[1] = target: human PCSK9 (Proprotein Convertase Subtilisin/Kexin type 9) (human) (UniProt Q8NBP7); test: cell-based or functional assay
[2] = target: human PCSK9 (Proprotein Convertase Subtilisin/Kexin type 9) (human) (UniProt Q8NBP7); test: binding ELISA on human PCSK9
[3] = target: human PCSK9-mFc-biotin (human) (UniProt Q8NBP7); test: competitive ELISA, blocking of PCSK9 binding to LDL-R

For Repatha (antibody), the IC50, LDL-uptake assay in HepG2 [1] was 77.6 nM, the pEC50 [2] was 10.36 and the pIC50 [3] was 8.66.

— patent US20190233542A1
